Results on two substances are retold here after PMC8331139.

The target of test [1] is FCPII-S, trimeric fucoxanthin chlorophyll a/c protein antenna of PSII (Thalassiosira pseudonana (endogenous)). Description: cryo-EM structure; cryo-electron tomography of unstacked thylakoid membrane vesicles with sub-volume averaging (EMAN2); complexes in situ in the membrane; 578 PSII and 374 PSI sub-volumes; resolution 4.2 nm (PSII) and 3.3 nm (PSI); densities assigned by rigid-body fitting of structures of other species.

Test [2] addresses PSII core complex of Thalassiosira pseudonana (dimeric core, C2) (Thalassiosira pseudonana (endogenous)) (UniProt A0T0N4). The description is as above.

In the case of “FCPII-S, trimeric fucoxanthin chlorophyll a/c protein antenna of PSII (complex)”, the stoichiometry N (usually the number of molecules, sites or subunits per partner or assembly) was determined as 3 in test [1] and 2 in test [2].
In test [2], “PSII core complex of Thalassiosira pseudonana (dimeric core, C2) (from UniProt A0T0N4 1-38)” registered a stoichiometry N of 2.
